Assay results taken from article PMC10179125, “Populus euphratica GLABRA3 Binds PLDδ Promoters to Enhance Salt Tolerance”.

Legend:
PeGLABRA3 [1] = target: T1, PeGLABRA3 (Populus euphratica, UniProt A0AAJ6UG00 1-628); experiment: EMSA; EMSA on 6% polyacrylamide gel, biotin probes, cold probe 10x; binding buffer, pH, salt and temperature not stated; conditions: protein: recombinant; tags: C-terminal His (pET28a); chain copies: 2; label: 3' biotin; blunt
T1 sequence: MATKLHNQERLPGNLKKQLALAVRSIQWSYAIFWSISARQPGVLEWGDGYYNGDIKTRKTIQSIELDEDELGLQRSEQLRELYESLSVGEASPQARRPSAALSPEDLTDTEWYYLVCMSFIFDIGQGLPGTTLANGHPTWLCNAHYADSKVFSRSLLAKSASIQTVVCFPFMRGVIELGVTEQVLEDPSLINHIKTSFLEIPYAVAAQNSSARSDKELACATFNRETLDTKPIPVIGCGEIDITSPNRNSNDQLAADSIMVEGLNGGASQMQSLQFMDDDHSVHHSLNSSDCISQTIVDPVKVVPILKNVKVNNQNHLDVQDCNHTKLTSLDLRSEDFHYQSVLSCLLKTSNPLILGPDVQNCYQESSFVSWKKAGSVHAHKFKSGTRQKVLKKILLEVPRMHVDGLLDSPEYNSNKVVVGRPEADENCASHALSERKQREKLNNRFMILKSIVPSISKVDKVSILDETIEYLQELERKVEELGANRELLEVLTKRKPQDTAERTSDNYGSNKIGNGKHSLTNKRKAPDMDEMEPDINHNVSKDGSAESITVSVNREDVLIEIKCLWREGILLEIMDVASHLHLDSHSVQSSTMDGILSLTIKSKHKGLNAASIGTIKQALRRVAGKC

PeGLABRA3 [2] = target: T1, PeGLABRA3; experiment: competition; 10x unlabeled probe vs biotin N1; EMSA on 6% polyacrylamide gel, biotin probes, cold probe 10x; binding buffer, pH, salt and temperature not stated; conditions: protein: recombinant; tags: C-terminal His (pET28a); chain copies: 2; blunt

| Binder | binding result (PeGLABRA3 [1]) | binding result (PeGLABRA3 [2]) |
| --- | --- | --- |
| PePLDδ promoter G-box probe (dsDNA) DNA 1: CGCTGATCCGGGTAACTGAAATCAGCTGCTGAGAGATGGAAGAGGAGAAT DNA 2: ATTCTCCTCTTCCATCTCTCAGCAGCTGATTTCAGTTACCCGGATCAGCG | binds | – |
| PePLDδ promoter G-box cold probe (dsDNA) DNA 1: CGCTGATCCGGGTAACTGAAATCAGCTGCTGAGAGATGGAAGAGGAGAAT DNA 2: ATTCTCCTCTTCCATCTCTCAGCAGCTGATTTCAGTTACCCGGATCAGCG | – | binds |
| AtPLDδ promoter G-box probe (dsDNA) DNA 1: AACTCCCATCACGTCGTCCCTCCACCTGTCCTCTCTTCTCCTTCCTTGCT DNA 2: AGCAAGGAAGGAGAAGAGAGGACAGGTGGAGGGACGACGTGATGGGAGTT | binds | – |
